The text below walks through data of article PMC7641331, “Ctf18-RFC and DNA Pol ϵ form a stable leading strand polymerase/clamp loader complex required for normal and perturbed DNA replication” (Nucleic Acids Research, 2019).

The target in series [1] is Pol2CAT, the complete catalytic domain of Pol2 (residues 1–1192), exonuclease-deficient (D290A/E292A) (S. cerevisiae) (UniProt P21951). Put plainly: ITC; 170 μM Ctf18-1-8 titrated into 25 μM Pol2CAT in the presence of 50 μM P1P2 DNA; 25°C; 20 mM HEPES pH 7.5, 160 mM NaCl, 1 mM TCEP; 1:1 hetero-association model.
In series [2] the target is Pol2 1-528 (Saccharomyces cerevisiae) (UniProt P21951). The note with it: cited from earlier work.
For series [3], the target named is T1, Pol2CAT, the complete catalytic domain of Pol2 (residues 1–1192), exonuclease-deficient (D290A/E292A) (S. cerevisiae, UniProt P21951 1-1192, D290A | E292A).
T1 construct: Pol2, largest (catalytic) subunit of DNA Pol ϵ, S. cerevisiae, residues 1-1192; An iron-sulfur (4Fe4S) cluster is modelled in the structure; No tag cleavage step is described; also called POL2(1–1192)exo; Pol2 catalytic domain; source: E. coli BL21(DE3)Star, purified (Histrap, Superdex 200, MonoQ); not shown: His tag (from the Histrap column)
T1 sequence (looked up): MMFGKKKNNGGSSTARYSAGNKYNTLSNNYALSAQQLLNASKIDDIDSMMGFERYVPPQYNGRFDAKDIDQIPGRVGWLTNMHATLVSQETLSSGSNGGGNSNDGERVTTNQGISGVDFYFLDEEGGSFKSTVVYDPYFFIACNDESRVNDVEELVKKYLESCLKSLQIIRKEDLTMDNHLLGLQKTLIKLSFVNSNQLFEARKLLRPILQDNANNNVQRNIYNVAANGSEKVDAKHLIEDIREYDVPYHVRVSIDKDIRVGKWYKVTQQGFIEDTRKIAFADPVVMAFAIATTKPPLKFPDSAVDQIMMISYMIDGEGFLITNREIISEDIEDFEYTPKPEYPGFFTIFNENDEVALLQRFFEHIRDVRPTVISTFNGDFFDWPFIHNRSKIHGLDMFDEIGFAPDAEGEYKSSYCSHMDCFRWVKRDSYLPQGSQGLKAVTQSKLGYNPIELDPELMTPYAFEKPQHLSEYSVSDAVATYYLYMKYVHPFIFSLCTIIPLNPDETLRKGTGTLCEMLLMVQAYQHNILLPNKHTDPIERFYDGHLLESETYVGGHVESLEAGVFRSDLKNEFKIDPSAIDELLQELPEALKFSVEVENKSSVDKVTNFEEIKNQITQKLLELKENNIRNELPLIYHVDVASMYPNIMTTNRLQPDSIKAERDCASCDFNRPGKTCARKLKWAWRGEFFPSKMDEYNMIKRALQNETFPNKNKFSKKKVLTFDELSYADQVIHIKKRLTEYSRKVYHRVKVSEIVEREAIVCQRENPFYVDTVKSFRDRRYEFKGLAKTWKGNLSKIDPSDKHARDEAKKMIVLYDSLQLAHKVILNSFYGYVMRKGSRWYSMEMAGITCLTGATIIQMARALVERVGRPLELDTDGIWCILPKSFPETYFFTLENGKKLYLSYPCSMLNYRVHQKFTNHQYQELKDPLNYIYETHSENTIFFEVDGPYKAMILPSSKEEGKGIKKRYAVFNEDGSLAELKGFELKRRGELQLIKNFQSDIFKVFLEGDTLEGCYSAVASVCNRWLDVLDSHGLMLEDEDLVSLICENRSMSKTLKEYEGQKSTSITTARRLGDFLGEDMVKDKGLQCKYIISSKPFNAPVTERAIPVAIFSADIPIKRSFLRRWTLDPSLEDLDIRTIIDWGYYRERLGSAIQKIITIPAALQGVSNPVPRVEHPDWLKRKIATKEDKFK
The series can be described thus: cryo-EM structure; 2 μM Ctf18-1-8, Pol2CAT and P1P2* DNA in 20 mM HEPES pH 7.5, 160 mM NaCl, 1 mM TCEP; GraFix sucrose gradient with 0.15% glutaraldehyde; only DNA-free classes refined (Class 1 4.2 Å, Class 2 5.8 Å). The note with it: both partners purified.

Series [4] deals with T2, Pol2CAT (exonuclease-deficient DNA Pol epsilon catalytic domain) (UniProt P21951 1-1192, D290A;E292A).
T2 sequence: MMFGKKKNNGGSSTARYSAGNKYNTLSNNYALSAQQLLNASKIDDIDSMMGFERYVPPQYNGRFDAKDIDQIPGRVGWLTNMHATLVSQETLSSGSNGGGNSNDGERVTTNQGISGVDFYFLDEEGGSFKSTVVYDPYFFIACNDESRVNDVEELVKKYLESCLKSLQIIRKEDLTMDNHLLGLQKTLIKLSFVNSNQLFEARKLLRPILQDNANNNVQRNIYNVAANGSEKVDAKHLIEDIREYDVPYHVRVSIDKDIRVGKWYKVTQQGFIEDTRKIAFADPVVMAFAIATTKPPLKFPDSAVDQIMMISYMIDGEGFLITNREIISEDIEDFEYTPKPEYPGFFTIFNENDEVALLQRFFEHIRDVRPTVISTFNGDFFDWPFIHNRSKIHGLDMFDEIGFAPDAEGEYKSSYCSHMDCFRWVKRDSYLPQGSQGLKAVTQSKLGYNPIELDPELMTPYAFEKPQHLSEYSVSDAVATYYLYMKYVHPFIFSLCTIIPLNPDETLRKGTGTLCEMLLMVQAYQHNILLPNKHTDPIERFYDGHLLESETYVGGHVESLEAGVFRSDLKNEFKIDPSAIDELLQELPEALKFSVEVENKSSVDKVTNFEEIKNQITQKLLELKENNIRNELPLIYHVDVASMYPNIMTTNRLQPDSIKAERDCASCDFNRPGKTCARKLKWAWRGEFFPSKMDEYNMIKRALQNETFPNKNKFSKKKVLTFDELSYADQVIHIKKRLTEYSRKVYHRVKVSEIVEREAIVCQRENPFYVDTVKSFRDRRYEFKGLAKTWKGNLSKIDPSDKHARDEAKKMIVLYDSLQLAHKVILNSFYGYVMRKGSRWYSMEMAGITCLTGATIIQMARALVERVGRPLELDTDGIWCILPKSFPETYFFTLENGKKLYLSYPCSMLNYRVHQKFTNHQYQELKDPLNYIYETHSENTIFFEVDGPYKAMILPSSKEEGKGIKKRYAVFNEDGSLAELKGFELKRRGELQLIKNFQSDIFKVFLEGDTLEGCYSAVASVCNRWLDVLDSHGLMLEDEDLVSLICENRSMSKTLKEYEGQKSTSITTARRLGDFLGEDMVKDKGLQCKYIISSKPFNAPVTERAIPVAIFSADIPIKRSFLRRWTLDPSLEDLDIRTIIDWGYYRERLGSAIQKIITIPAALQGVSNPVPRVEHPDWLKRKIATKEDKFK
The series can be described thus: EMSA; 50 nM DNA, no dNTP; EMSA: 25 mM HEPES pH 7.5, 60 mM KCl, 10% glycerol, 1 mM TCEP, 50 nM P1P2*, 20 min on ice, 6% Tris-glycine gel at 4 C. The note with it: protein: recombinant; tags: N-terminal His (pETM14); label: 5' Cy3 on P1; 5' overhang 5 nt on P2 (template); 11 bp duplex.

The target of series [5] is Pol2CAT (exonuclease-deficient DNA Pol epsilon catalytic domain);Ctf18-1-8 wild type (Ctf18 C-terminal … (Saccharomyces cerevisiae?;Saccharomyces …, UniProt P21951;P49956;P25559;P38877 1-1192;666-741;1-380;1-133, D290A;E292A|)). The series can be described thus: EMSA supershift; 50 nM DNA; supershift saturated at 125 nM Ctf18-1-8 (lowest tested); DNA binding identical to Pol2CAT alone; EMSA: 25 mM HEPES pH 7.5, 60 mM KCl, 10% glycerol, 1 mM TCEP, 50 nM P1P2*, 20 min on ice, 6% Tris-glycine gel at 4 C. The note with it: protein: recombinant;recombinant; tags: N-terminal His (pETM14); copies: 1;1;1;1; label: 5' Cy3 on P1; 5' overhang 5 nt on P2 (template); 11 bp duplex.
Chain of Pol2CAT (exonuclease-deficient DNA Pol epsilon catalytic domain);Ctf18-1-8 wild type (Ctf18 C-terminal … (P49956 666-741, chain 2 of 2): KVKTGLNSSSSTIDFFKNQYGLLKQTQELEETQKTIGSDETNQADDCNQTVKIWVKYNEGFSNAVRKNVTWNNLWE
Chain of Pol2CAT (exonuclease-deficient DNA Pol epsilon catalytic domain);Ctf18-1-8 wild type (Ctf18 C-terminal … (P38877 whole entry, chain 4 of 2, the tested form may be a part): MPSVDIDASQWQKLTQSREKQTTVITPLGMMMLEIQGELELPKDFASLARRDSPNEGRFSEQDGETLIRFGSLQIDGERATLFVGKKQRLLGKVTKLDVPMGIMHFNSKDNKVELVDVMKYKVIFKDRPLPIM

For the molecule “Ctf18-1-8 module (C-terminus of Ctf18 with Dcc1 and Ctf8), wild type (from UniProt P49956 1-741; P25559 1-380; P38877 1-133) (complex)”, the equilibrium dissociation constant (Kd) in series [1] was 40 nM.

For Ctf18-1-8 (from UniProt P49956), the Kd in series [2] was 1300 nM.

B1: Dcc1 (chain of the recombinant Ctf18-1-8 module) (natural protein, S. cerevisiae)
chain: MSINLHSAPEYDPSYKLIQLTPELLDIIQDPVQNHQLRFKSLDKDKSEVVLCSHDKTWVLKQRKHSNTVLLMREFVPEQPITFDETLLFGLSKPYMDVVGFAKTESEFETRETHGELNLNSVPIYNGELDFSDKIMKRSSTKVIGTLEELLENSPCSALEGISKWHKIGGSVKDGVLCILSQDFLFKALHVLLMSAMAESLDLQHLNVEDTHHAVGKDIEDEFNPYTREIIETVLNKFAVQEQEAENNTWRLRIPFIAQWYGIQALRKYVSGISMPIDEFLIKWKSLFPPFFPCDIDIDMLRGYHFKPTDKTVQYIAKSTLPMDPKERFKVLFRLQSQWDLEDIKPLIEELNSRGMKIDSFIMKYARRKRLGKKTVVTSR
notes: Dcc1, S. cerevisiae; The Dcc1 chain of m2, written alone for the pairs that touch in the structures; also called Dcc1WH3 (its last winged helix domain)
B1: the binding result in series [3] is recorded as “binds”.

B2: P1P2* primer-template (dsDNA)
DNA 1: TAACCGCGTTC
DNA 2: CTCTTGAACGCGGTTA
Regarding B2, the binding result in series [4] and in series [5] was “binds” in each case.
